Test results reported in article PMC9482650, “Quantitative fragmentomics allow affinity mapping of interactomes” (Nature Communications, 2022).

T1: ARHGAP21, Q5T5U3
T1 sequence (Q5T5U3 45-169, limits assumed, looked up): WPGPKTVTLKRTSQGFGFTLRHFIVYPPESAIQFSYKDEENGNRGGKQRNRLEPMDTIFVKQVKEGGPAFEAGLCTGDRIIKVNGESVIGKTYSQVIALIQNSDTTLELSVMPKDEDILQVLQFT

T2: DFNB31_1, Q9P202
T2 sequence (Q9P202 135-233, limits assumed, looked up): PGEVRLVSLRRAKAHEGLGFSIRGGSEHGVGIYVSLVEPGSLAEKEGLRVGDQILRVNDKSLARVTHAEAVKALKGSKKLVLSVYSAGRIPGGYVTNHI

T3: DLG3_1, Q92796
T3 sequence (Q92796 125-227, limits assumed, looked up): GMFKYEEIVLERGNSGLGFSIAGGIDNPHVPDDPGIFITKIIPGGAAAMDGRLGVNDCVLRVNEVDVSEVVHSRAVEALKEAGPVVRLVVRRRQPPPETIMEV

T4: DLG3_3, Q92796
T4 sequence (Q92796 374-475, limits assumed, looked up): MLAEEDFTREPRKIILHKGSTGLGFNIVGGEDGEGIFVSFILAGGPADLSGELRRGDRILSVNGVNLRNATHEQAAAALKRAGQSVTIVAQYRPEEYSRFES

T5: LIN7B, Q9HAP6
T5 sequence (Q9HAP6 88-185, limits assumed, looked up): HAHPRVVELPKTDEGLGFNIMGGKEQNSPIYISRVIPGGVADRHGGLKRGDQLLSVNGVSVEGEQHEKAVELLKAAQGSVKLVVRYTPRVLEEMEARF

T6: MPDZ_12, O75970
T6 sequence (O75970 1857-1958, limits assumed, looked up): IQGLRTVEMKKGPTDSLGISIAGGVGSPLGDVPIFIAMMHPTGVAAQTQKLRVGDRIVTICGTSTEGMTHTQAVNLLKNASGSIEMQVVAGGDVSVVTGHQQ

T7: MPP7, Q5T2T1
T7 sequence (Q5T2T1 134-230, limits assumed, looked up): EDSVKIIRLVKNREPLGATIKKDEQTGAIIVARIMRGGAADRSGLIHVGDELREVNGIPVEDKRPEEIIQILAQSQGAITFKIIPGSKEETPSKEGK

T8: PDZD7_3, Q9H5P4
T8 sequence (Q9H5P4 857-944, limits assumed, looked up): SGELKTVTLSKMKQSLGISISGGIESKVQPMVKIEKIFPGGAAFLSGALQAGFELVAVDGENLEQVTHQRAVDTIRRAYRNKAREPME

T9: PDZRN3_1, Q9UPQ7
T9 sequence (Q9UPQ7 244-349, limits assumed, looked up): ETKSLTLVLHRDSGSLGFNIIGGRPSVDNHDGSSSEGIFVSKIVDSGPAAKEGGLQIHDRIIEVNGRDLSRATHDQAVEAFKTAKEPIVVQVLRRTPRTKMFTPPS

T10: RHPN1, Q8TCX5
T10 sequence (Q8TCX5 508-602, limits assumed, looked up): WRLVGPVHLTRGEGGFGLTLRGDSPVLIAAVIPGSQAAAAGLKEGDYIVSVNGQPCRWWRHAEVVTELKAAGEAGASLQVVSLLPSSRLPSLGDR

T11: SHANK1, Q9Y566
T11 sequence (Q9Y566 658-767, limits assumed, looked up): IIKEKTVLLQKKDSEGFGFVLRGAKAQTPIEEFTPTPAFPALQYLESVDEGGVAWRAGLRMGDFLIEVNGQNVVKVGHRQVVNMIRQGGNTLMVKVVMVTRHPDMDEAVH

T12: TIAM2, Q8IVF5
T12 sequence (Q8IVF5 885-986, limits assumed, looked up): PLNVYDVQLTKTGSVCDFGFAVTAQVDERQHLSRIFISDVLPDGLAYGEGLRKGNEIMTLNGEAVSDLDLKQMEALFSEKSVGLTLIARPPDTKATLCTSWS


What was measured:
Test in all cases: holdup assay
Set-up in all cases: key: below the threshold = too weak to quantify, mostly under pKd 3.1 to 4
Details in all cases: plain residues with an end cap or a label only (N-terminal biotin on a linker: ado-ado)
[1] = biological target: T1, ARHGAP21, Q5T5U3
[2] = biological target: ARHGEF12, Q9NZN5-2
Sequence of ARHGEF12, Q9NZN5-2 (Q9NZN5 other isoform, or with tags, fused parts or gaps): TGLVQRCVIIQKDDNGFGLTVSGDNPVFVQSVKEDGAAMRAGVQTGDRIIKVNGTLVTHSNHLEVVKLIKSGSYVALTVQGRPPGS

[3] = biological target: T2, DFNB31_1, Q9P202
[4] = biological target: DLG1_1, Q12959
[5] = biological target: T3, DLG3_1, Q92796
[6] = biological target: T4, DLG3_3, Q92796
[7] = biological target: GOPC, Q9HD26
[8] = biological target: HTRA2, O43464
Sequence of HTRA2, O43464 (O43464 355-458): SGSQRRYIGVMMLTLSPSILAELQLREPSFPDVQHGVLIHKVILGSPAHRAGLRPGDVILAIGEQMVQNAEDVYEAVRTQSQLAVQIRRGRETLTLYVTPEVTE

[9] = biological target: IL16_1, Q14005
Sequence of IL16_1, Q14005 (Q14005 210-306): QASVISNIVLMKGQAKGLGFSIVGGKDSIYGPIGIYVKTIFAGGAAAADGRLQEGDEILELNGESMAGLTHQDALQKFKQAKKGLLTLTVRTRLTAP

[10] = biological target: LDB3, O75112
Sequence of LDB3, O75112 (O75112 1-94): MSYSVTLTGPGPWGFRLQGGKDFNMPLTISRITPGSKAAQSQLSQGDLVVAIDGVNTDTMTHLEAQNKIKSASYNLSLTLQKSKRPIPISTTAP

[11] = biological target: T5, LIN7B, Q9HAP6
[12] = biological target: LNX1_1, Q8TBB1
Sequence of LNX1_1, Q8TBB1 (Q8TBB1 261-371): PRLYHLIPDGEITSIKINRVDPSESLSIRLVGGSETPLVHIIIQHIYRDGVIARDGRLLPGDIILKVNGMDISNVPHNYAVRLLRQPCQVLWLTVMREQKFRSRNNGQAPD

[13] = biological target: MAGI2_4, Q86UL8
Sequence of MAGI2_4, Q86UL8 (Q86UL8 772-865): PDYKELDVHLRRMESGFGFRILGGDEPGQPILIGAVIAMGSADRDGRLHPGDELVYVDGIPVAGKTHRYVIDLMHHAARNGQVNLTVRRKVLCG

[14] = biological target: MAST1, Q9Y2H9
Sequence of MAST1, Q9Y2H9 (Q9Y2H9 962-1065): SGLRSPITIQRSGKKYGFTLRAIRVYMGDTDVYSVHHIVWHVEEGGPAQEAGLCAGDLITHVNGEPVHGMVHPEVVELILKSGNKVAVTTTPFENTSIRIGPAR

[15] = biological target: T6, MPDZ_12, O75970
[16] = biological target: T7, MPP7, Q5T2T1
[17] = biological target: PARD3_3, Q8TEW0
Sequence of PARD3_3, Q8TEW0 (Q8TEW0 582-685): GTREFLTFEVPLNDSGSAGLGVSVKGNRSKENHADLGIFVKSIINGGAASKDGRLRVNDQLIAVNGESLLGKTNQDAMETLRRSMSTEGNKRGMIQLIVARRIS

[18] = biological target: T8, PDZD7_3, Q9H5P4
[19] = biological target: T9, PDZRN3_1, Q9UPQ7
[20] = biological target: PTPN3, P26045
Sequence of PTPN3, P26045 (P26045 505-587): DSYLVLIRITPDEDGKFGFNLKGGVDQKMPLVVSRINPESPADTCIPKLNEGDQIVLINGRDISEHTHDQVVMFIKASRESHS

[21] = biological target: T10, RHPN1, Q8TCX5
[22] = biological target: SCRIB_2, Q14160
Sequence of SCRIB_2, Q14160 (Q14160 857-960): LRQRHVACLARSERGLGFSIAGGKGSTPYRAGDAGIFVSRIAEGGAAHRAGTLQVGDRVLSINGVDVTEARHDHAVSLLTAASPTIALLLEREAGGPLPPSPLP

[23] = biological target: SCRIB_3, Q14160
Sequence of SCRIB_3, Q14160 (Q14160 999-1103): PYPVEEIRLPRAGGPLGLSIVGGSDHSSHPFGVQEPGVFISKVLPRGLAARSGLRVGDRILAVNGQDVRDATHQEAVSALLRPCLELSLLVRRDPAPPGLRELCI

[24] = biological target: T11, SHANK1, Q9Y566
[25] = biological target: T12, TIAM2, Q8IVF5

pKd [1] | pKd [2] | pKd [3] | pKd [4] | pKd [5] | pKd [6] | pKd [7] | pKd [8] | pKd [9] | pKd [10] | pKd [11] | pKd [12] | pKd [13] | pKd [14] | pKd [15] | pKd [16] | pKd [17] | pKd [18] | pKd [19] | pKd [20] | Binder | also measured
4.27 | 4.03 | 3.74 | 3.84 | below the threshold | below the threshold | 3.61 | below the threshold | below the threshold | below the threshold | below the threshold | below the threshold | 3.91 | 3.84 | below the threshold | below the threshold | 3.48 | 3.99 | 3.73 | 4.22 | WRSKRTDTLL [RAMP3, O60896] | pKd [21]: 4.04; pKd [22]: below the threshold; pKd [23]: 3.98; pKd [24]: below the threshold; pKd [25]: below the threshold
below the threshold | below the threshold | below the threshold | below the threshold | below the threshold | below the threshold | below the threshold | below the threshold | below the threshold | below the threshold | 3.58 | below the threshold | below the threshold | below the threshold | below the threshold | 3.59 | below the threshold | below the threshold | below the threshold | 3.54 | FEEEAEEEVA [TUBB4B, P68371] | pKd [21]: below the threshold; pKd [22]: below the threshold; pKd [23]: below the threshold; pKd [24]: below the threshold; pKd [25]: 3.74
below the threshold | 4.8 | 3.98 | 5.24 | 4.38 | 4.64 | 4.9 | 3.56 | 4.17 | below the threshold | 4.16 | 4.41 | 4.77 | 4.65 | below the threshold | below the threshold | below the threshold | 5.24 | 3.81 | 4.91 | REVVMRVTTV [MARCHF9, Q86YJ5] | pKd [21]: 3.91; pKd [22]: 4.15; pKd [23]: 4.43; pKd [24]: below the threshold; pKd [25]: 3.85
